Values quoted from earlier work in article PMC10578080.

Molecular target: neuronal ternary SNARE complex (Rattus norvegicus) (UniProt P32851)
Sequence of UniProt P32851 (P32851 whole entry, chain 1 of 3): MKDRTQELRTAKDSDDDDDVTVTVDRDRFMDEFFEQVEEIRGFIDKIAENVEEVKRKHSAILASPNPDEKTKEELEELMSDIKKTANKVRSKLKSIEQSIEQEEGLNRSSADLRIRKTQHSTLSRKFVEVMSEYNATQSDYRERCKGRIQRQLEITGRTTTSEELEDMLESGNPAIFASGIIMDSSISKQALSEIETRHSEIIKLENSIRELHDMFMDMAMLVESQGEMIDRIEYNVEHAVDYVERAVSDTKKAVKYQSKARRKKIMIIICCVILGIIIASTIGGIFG
Sequence of UniProt P32851 (B2RAU4 whole entry, chain 2 of 3, further chain): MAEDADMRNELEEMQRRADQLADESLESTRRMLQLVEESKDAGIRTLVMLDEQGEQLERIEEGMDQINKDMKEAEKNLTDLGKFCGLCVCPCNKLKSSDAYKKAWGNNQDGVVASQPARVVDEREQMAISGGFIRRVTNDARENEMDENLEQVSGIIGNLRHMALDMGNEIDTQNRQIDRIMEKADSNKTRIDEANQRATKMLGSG
Sequence of UniProt P32851 (P63044 2-116, chain 3 of 3, further chain): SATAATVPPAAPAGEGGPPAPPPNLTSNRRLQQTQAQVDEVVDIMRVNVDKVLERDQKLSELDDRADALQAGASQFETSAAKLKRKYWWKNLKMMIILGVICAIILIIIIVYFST

Kd: 10 nM
Substance: Cpx1 central domain (from UniProt P63041)
